Patent publication US20100196361A1, “Method of inhibition of vascular development using an antibody” (DYAX CORP., priority 2003, published 2010)
Numbering of substitutions follows the chain as printed. Like-named read-outs stand apart in the source and are kept apart here.

B1: E3: human anti-Tie1 antibody from phage Fab library, reformatted as IgG; HC variable SEQ ID NO:114, LC variable SEQ ID NO:116 (antibody, V domains shown)
VH: EVQLLESGGGLVQPGGSLRLSCAASGFTFSMYGMVWVRQAPGKGLEWVSVISPSGGNTGYADSVKGRFTISRDNSKNTLYLQVNSLRAEDTAVYYCARAPRGYSYGYYYWGQGTLVTVSSASTKGPSVFPLAPSSKSTSGG
VL: DIQMTQSPLSLSASVGDRVTITCRASQGIGHYLAWYQQKPGKVPKLLIYTASTLQSGVPSRFSGSGSGTDFTLTINSLQPEDVATYYCQQFNSYPHTFGQGTRLDIK
modifications: IgG constant regions; Synthetically generated peptide
B2: DX-2210: E3 antibody in which the light chain has been germlined (antibody, V domains shown)
VH: B1 VH
VL: B1 VL with L9S, N76S, D105E

Experiments:
[1] = test system: bFGF-induced angiogenesis; test: […] plug assay in vivo; parameters: species or system mouse
Method: The germlined variant of the E3 IgG antibody was evaluated in an in vivo assay for angiogenesis induced by bFGF in […]™ plugs. Growth factor reduced […]™ (BD Biosciences, catalog #354230) was supplemented with 80 ng/ml of bFGF (R&D Systems, catalog #234-FSE). The A2-SV or an IgG4 E3 antibody (10 μg/ml) or PBS was injected subcutaneously into the abdominal area of NMRI nu/nu mice (150 μl of Matrigel/plug).
In the first assay, two mice were injected with […]™ supplemented with bFGF and soluble VEGFR-1 (10 μg/ml) as a positive control for an angiogenic inhibitor. At day 7 post-implantation mice were anesthetized and perfused through heart with 4% paraformaldehyde (PFA) in phosphate buffered saline (PBS). […]™ plugs and a piece of liver were removed and embedded in paraffin. Sections were cut and stained with hematoxylin and eosin (H&E).
In a second assay, mice were treated as described above, and then anesthetized eight days post-implantation and injected with fluorescein-conjugated tomato (lycopersicon esculentum) lectin (100 μg in 200 μl of PBS; Vector, catalog #FL-1171) into the tail vein. After five min circulation the animals were perfused through the heart with 10 ml of PBS followed by 10 ml of 4% PFA in PBS. […]™ plugs and pieces of kidney and liver were removed and frozen in OCT (Tissue-Tek). Nuclei were visualized on sections by using […]® mounting medium containing DAPI (Vector) and analyzed under fluorescence microscopy.
To assess further the potential anti-angiogenic activity of the E3 antibody, a third assay examining the effect of DX-2210 (E3 antibody with germlined light chain) on bFGF-induced endothelial cell tube formation in […]™ plugs was performed. […] In order to quantitate the amount of blood vessels in the […]™ plugs, sections were cut and either stained for endothelial cell content using an anti-CD-31 antibody or analyzed under fluorescence microscopy to assess the amount of functional blood vessels (tomato lectin staining) (data not shown). In addition, the amount of blood vessels per unit area was quantitated.

[2] = test system: platelets; test: Platelet agglutination and aggregation; type: cell-based
Description: It has been reported that Tie1 is expressed on platelets ([…] et al. (2000) J. Vasc. Res. 37(6):437). The possibility of platelet immunoreactivity with the E3 anti-Tie1 antibody was investigated by FACs analysis and immunoprecipitation studies. […] In addition, the effect of DX-2200 and DX-2210 on platelet agglutination and aggregation was investigated. Ristocetin, a cofactor that induces platelet agglutination by mediating the binding of von Willebrand factor (vWF) to platelet membrane glycoprotein GPIb (CD42), was used as a positive control for platelet agglutination.

Molecule | fluorescein-lectin staining of MATRIGEL plugs ([1]; bFGF, antibody in plug, eight days post-implantation) | induction of platelet agglutination or aggregation ([2]; ristocetin and anti-CD9 as positive controls) | inhibition of bFGF-induced angiogenesis (blood vessels per unit area) ([1]; MATRIGEL with HUVECs and bFGF, Balb/c nu/nu mice, day 8) [%] | H&E staining of MATRIGEL plugs ([1]; bFGF 80 ng/ml, antibody 10 μg/ml in plug, NMRI nu/nu mice, day 7) | induction of platelet agglutination or aggregation [2]
B1 | no staining could be detected | Neither the DX-2200 nor its light chain germlined variant DX-2210 induced platelet agglutination or aggregation |  |  | 
B2 |  |  | 70 | neither modification of the matrix nor organization of the cells observed | Neither the DX-2200 nor its light chain germlined variant DX-2210 induced platelet agglutination or aggregation
